The record followed here is paper PMC8635433 (Science Advances, 2021).

This assay deals with coxsackie and adenovirus receptor (CAR), immobilised for SPR (UniProt P78310 20-365). Kind of assay: SPR; BIAcore T200; about 2000 RU of CAR, DSG2 and CD46 amine-coupled to a CM5 chip; fiber knob proteins flowed over, 1:2 serial dilutions; 25°C, PBS with 0.001% P20, 30 μl/min; 1:1 interaction model. The following applies: both partners purified.
Sequence of coxsackie and adenovirus receptor (CAR), immobilised for SPR (P78310 20-365): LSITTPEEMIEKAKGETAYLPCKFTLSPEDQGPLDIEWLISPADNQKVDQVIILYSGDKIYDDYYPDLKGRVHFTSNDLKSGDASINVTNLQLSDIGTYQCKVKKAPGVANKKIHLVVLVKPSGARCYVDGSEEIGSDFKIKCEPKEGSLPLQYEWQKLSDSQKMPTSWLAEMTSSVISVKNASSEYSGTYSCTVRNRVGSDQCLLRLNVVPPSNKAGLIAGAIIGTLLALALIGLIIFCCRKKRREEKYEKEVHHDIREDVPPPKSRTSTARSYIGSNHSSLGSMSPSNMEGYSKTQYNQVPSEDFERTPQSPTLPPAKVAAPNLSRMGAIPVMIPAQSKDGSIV

B1: HAdV-C5 fiber knob protein (domain or fragment)
chain: TGAITVGNKNNDKLTLWTTPAPSPNCRLNAEKDAKLTLVLTKCGSQILATVSVLAVKGSLAPISGTVQSAHLIIRFDENGVLLNNSFLDPEYWNFRNGDLTEGTAYTNAVGFMPNLSAYPKSHGKTAKSNIVSQVYLNGDKTKPVTLTITLNGTQETGDTTPSAYSMSFSWDWSGHNYINEIFATSSYTFSYIAQE
notes: source: recombinant soluble knob protein, purified
For orientation: Kd means the concentration at which binding is half-saturated. The molecule B1 displayed a Kd of 0.06 nM.
